Test results as given in the supplement of paper PMC7125110.
± gives the standard error. Fewer inactive variants are shown than the library holds.

B1: glmS ribozyme (parent)
chain: AUAAAAGCGCCAGAACUACAGAAAUGUAGUUGACGAGGAGGAGGUUUAUCGAAUUUUCGGCGGAUGCCUCCAAA

Assays:
Settings in all cases: with glucosamine-6-phosphate
glucosamine-6-phosphate [1] = variants of: B1; experiment: self-cleavage kobs at 40 uM GlcN6P; higher = faster cleavage; RNA array
Procedure, shortened: (§1)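 kobs was derived by fitting per-tile medians to one- or two-exponential decays after normalising signals to baseline and to non-cleaving reference variants. Those signals came from barcoded ribozyme variants transcribed in situ by E. coli RNA polymerase on sequenced MiSeq chips, followed through a hybridised Cy3 probe at 37 °C and imaged over ~14 h. Glucosamine-6-phosphate (40 μM to 10 mM) in HEPES/KCl/Mg(OAc)2 buffer was flowed in. Weighted Michaelis–Menten fits across concentrations then gave kcat and KM.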

glucosamine-6-phosphate [2] = variants of: B1; experiment: self-cleavage kobs at 160 uM GlcN6P; higher = faster cleavage; RNA array
Procedure, shortened: as §1

glucosamine-6-phosphate [3] = variants of: B1; experiment: self-cleavage kobs at 640 uM GlcN6P; higher = faster cleavage; RNA array
Procedure, shortened: as §1

glucosamine-6-phosphate [4] = variants of: B1; experiment: self-cleavage kobs at 2500 uM GlcN6P; higher = faster cleavage; RNA array
Procedure, shortened: as §1

glucosamine-6-phosphate [5] = variants of: B1; experiment: self-cleavage kobs at 10000 uM GlcN6P; higher = faster cleavage; RNA array
Procedure, shortened: as §1

| Variant | self-cleavage kobs at 40 uM GlcN6P (glucosamine-6-phosphate [1]) [s⁻¹] | self-cleavage kobs at 160 uM GlcN6P (glucosamine-6-phosphate [2]) [s⁻¹] | self-cleavage kobs at 640 uM GlcN6P (glucosamine-6-phosphate [3]) [s⁻¹] | self-cleavage kobs at 2500 uM GlcN6P (glucosamine-6-phosphate [4]) [s⁻¹] | self-cleavage kobs at 10000 uM GlcN6P (glucosamine-6-phosphate [5]) [s⁻¹] |
| --- | --- | --- | --- | --- | --- |
| C16A C71U | 5.08e-05 ± 8.3e-06 | 0.000159 ± 3.6e-05 | 0.000293 ± 3.5e-05 | 0.000355 ± 5.3e-05 | 0.00133 ± 0.00014 |
| C16U U55A C67A | 0.000154 ± 5.7e-05 |  |  |  | 0.00183 ± 0.00074 |
| G29A U69C | 6.51e-05 ± 1.6e-05 | 7e-05 ± 1.3e-05 | 0.000122 ± 2.2e-05 | 0.000105 ± 1.6e-05 | 0.000486 ± 0.00013 |
| A15U G63U | < 1e-05 | < 1e-05 | < 1e-05 |  | < 1e-05 |
| G29U C50G | 5.51e-05 ± 1.5e-05 | 0.000992 ± 0.0003 | 5.49e-05 ± 1.4e-05 |  |  |
| U30A A48U | < 1e-05 |  |  |  | 4.05e-05 ± 1.5e-05 |
| A15G A36C C68G | 6.45e-05 ± 2.9e-05 |  |  |  |  |
| A15G A48U U55C | < 1e-05 |  |  |  | 0.000412 ± 8.4e-05 |
| G29A A39C G59U | < 1e-05 |  |  |  |  |
| A15G G43U A53C | < 1e-05 |  |  |  |  |
| A15C G35A G51A C68A | < 1e-05 |  | < 1e-05 |  | < 1e-05 |
| C16U C50G | 4.26e-05 ± 1.3e-05 | 3.28e-05 ± 1.4e-05 | 4.35e-05 ± 1.3e-05 |  |  |
| C16U G63C | < 1e-05 |  | < 1e-05 |  | < 1e-05 |
| C16A G40C | < 1e-05 |  | 4.46e-05 ± 1.5e-05 | 0.000112 ± 1.8e-05 |  |
| A15U G29U C71G | 6.19e-05 ± 2.4e-05 |  |  |  | 0.000144 ± 2.7e-05 |
| C16G G35C A36U A42U C50U | < 1e-05 |  |  |  | < 1e-05 |
| G29C G44U | < 1e-05 | < 1e-05 | < 1e-05 |  |  |
| G29C G60A | < 1e-05 | < 1e-05 |  | < 1e-05 | < 1e-05 |
| U30A G37U G44U U45A C70U | < 1e-05 |  |  |  | < 1e-05 |
| A15G G41A U57G | < 1e-05 |  |  |  |  |
| U30C G35A C67U | < 1e-05 |  |  |  |  |
| U30A U45C A48C | < 1e-05 |  |  |  |  |
| C16G C34G G40C U55A C58U U69A | < 1e-05 |  |  |  | < 1e-05 |
| U30C G41C C61A C71U | < 1e-05 |  |  |  | < 1e-05 |
| U30A G59U | < 1e-05 |  |  |  |  |
| A15C G35U | < 1e-05 | < 1e-05 | < 1e-05 | < 1e-05 |  |
| A14U G43A U55A C61A | < 1e-05 |  |  |  | < 1e-05 |

| Variant | self-cleavage kobs at 40 uM GlcN6P (glucosamine-6-phosphate [1]) [s⁻¹] | self-cleavage kobs at 160 uM GlcN6P (glucosamine-6-phosphate [2]) [s⁻¹] | self-cleavage kobs at 640 uM GlcN6P (glucosamine-6-phosphate [3]) [s⁻¹] | self-cleavage kobs at 2500 uM GlcN6P (glucosamine-6-phosphate [4]) [s⁻¹] | self-cleavage kobs at 10000 uM GlcN6P (glucosamine-6-phosphate [5]) [s⁻¹] |
| --- | --- | --- | --- | --- | --- |
| A15G U55G G63A | < 1e-05 |  |  |  | < 1e-05 |
| G29U U49A U57C C70G | < 1e-05 |  |  |  |  |
| A15G U47A C50A | < 1e-05 |  |  |  |  |
| A15C C50G A53G | 7e-05 ± 2.9e-05 |  |  |  |  |
| A15U G29U U54G | 7.25e-05 ± 1.8e-05 |  |  |  | 0.00243 ± 0.00048 |
| C16G C34G G44U C50U U69C | < 1e-05 |  |  |  |  |
| G29A U56C G59A C71A | < 1e-05 |  |  |  | < 1e-05 |
| A14U G37A C50U G63C | < 1e-05 |  |  |  |  |
| G29C G32U C34A C50G U65G C68G | 8.78e-05 ± 3.1e-05 | 0.000304 ± 5.8e-05 | 8.65e-05 ± 2.9e-05 | 0.000304 ± 7.2e-05 | 4.42e-05 ± 1.7e-05 |
| C16U U31A A36G | < 1e-05 |  |  |  |  |
| C16G U31A | 5.78e-05 ± 2.1e-05 | 4.17e-05 ± 1.9e-05 | 0.000204 ± 8.2e-05 | 0.00117 ± 0.00048 | 0.00174 ± 0.0006 |
| G29C A36G G51C | < 1e-05 |  |  |  |  |
| G29U G63C | < 1e-05 |  | < 1e-05 |  | < 1e-05 |
| A14U U47A | 0.000141 ± 1.5e-05 | 0.000575 ± 0.00028 |  |  | 0.00513 ± 0.00047 |
| G29C A64U | < 1e-05 | < 1e-05 |  |  |  |
| A15U U30G G41U | 0.000122 ± 2.7e-05 |  |  | 0.000705 ± 0.00027 | 0.0015 ± 0.00032 |
| A15C G38C A52G | < 1e-05 |  |  | < 1e-05 |  |
| A15G G32C G41A C70A | < 1e-05 |  |  |  |  |
| A14U G63A | < 1e-05 |  | < 1e-05 |  |  |
| A14U G63U | < 1e-05 | < 1e-05 | < 1e-05 | < 1e-05 |  |
| G29C A42C G43C U54A | < 1e-05 |  |  |  |  |
| A15U A64C | < 1e-05 | < 1e-05 |  |  |  |
| C16G G51C U55A U65A | < 1e-05 |  |  | < 1e-05 | < 1e-05 |
| C16A G29U U30G U49G C70U | < 1e-05 |  |  |  |  |
| U30A G63C | < 1e-05 | < 1e-05 |  | < 1e-05 | < 1e-05 |
| G29C U54A | 6.64e-05 ± 1.5e-05 |  | 0.000499 ± 8.4e-05 | 0.000928 ± 0.00025 | 0.00381 ± 0.00046 |
| G29U U30G G43C C68G | 0.000152 ± 2.6e-05 |  |  |  | 0.0065 ± 0.0015 |
